# Reference: publication PMC3778016, “Tracking of Chromosome and Replisome Dynamics in Myxococcus xanthus Reveals a Novel Chromosome Arrangement”
# T1: His6-ParB (Myxococcus xanthus DK1622, UniProt Q1CVJ4 1-296)
# T1 sequence: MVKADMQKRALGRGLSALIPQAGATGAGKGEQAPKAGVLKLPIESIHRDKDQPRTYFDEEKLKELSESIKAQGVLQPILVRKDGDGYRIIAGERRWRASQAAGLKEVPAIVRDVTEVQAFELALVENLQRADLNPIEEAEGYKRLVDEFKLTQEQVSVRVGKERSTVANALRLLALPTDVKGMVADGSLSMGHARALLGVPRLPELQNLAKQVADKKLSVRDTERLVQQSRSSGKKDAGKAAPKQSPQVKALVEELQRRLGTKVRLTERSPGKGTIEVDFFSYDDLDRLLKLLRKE
# Legend:
# [1] = target: T1, His6-ParB; assay: EMSA; 100 nM DNA, 0.1-6 uM His6-ParB, 5 uM pBluescript II SK- competitor, 5 mM Mg2+; 38 mM Hepes/NaOH pH 7.2, 38 mM NaCl, 5 mM MgCl2, 7% glycerol, 1 mM beta-mercaptoethanol, 20 min at 30 C; 6% PAGE at 4 C in 1xTBE + 5 mM MgCl2; settings: protein: recombinant; tags: N-terminal His6 (pET45b+); chain copies: 2; blunt
# [2] = target: T1, His6-ParB; assay: as above; settings: protein: recombinant; tags: N-terminal His6 (pET45b+); chain copies: 2; blunt; remark: listed apart in the source
Binder,binding signal [1],binding result [2]
HEX-parSmut (dsDNA) DNA 1: GAGGCTTGCCCCACGTGGAACGTCGG DNA 2: CCGACGTTCCACGTGGGGCAAGCCTC,~10 fold reduced affinity vs N1,
HEX-parS consensus (dsDNA) DNA 1: GAGGCTTGTTCCACGTGGAACGTCGG DNA 2: CCGACGTTCCACGTGGAACAAGCCTC,,binds
